Broadly, the stoichiometry N is a count of units in the complex or per binding partner. As a reminder, the Kd is the concentration at which binding is half-saturated.

Sequences and labels used below:
T1: DegP^S210A,Y444A (E. coli K12), P0C0V0
T1 chain: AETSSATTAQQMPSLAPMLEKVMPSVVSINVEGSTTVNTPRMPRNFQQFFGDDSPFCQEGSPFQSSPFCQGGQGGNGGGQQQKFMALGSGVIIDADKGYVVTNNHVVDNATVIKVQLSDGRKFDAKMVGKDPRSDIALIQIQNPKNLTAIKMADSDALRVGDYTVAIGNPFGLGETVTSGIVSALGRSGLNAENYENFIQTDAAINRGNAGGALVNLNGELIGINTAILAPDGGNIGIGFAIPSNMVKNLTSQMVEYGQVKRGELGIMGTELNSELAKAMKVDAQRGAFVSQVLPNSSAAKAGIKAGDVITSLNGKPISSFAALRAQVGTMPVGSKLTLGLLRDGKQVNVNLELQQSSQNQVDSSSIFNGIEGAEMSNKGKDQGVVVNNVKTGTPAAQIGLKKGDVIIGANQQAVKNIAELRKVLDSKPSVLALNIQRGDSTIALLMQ

T2: DegP PDZ1 domain (DegP^261-354) (E. coli K12, UniProt P0C0V0 287-380)
T2 construct: DegP protease, E. coli K12, PDZ1 domain, residues 261-354; numbers count on: the mature protein; [U-15N]-labelled when observed in NMR titrations; also called pDS10; source: E. coli BL21 Star (λ DE3), purified (Ni2+ Sepharose, SENP1 cleavage, Superdex 75 Increase SEC); not shown: His6-SUMO, N-terminal, cleaved
T2 sequence (looked up): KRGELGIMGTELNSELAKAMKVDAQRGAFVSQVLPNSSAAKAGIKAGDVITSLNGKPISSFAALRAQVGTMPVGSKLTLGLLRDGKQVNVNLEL

T3: biotinylated PDZ1 domain (E. coli K12, UniProt P0C0V0 287-380, biotin (EZ-Link NHS-PEG4-Biotin, molar ratio 1:1 at pH 6.0 to ensure preferential labeling of the N-terminal α-amino group))
T3 construct: DegP protease, E. coli K12, PDZ1 domain, residues 261-354; numbers count on: the mature protein; m5 after biotinylation; immobilised on streptavidin biosensors; source: E. coli BL21 Star (λ DE3), purified, then biotinylated (EZ-Link NHS-PEG4-Biotin); not shown: His6-SUMO, N-terminal, cleaved
T3 sequence (looked up): T2 sequence (looked up)

B1: DegP PDZ1-PDZ2 domain construct (DegP^261-448) (domain or fragment, E. coli K12, UniProt P0C0V0 287-474, looked up)
chain: KRGELGIMGTELNSELAKAMKVDAQRGAFVSQVLPNSSAAKAGIKAGDVITSLNGKPISSFAALRAQVGTMPVGSKLTLGLLRDGKQVNVNLELQQSSQNQVDSSSIFNGIEGAEMSNKGKDQGVVVNNVKTGTPAAQIGLKKGDVIIGANQQAVKNIAELRKVLDSKPSVLALNIQRGDSTIYLLMQ
notes: DegP protease, E. coli K12, PDZ1-PDZ2 domains, residues 261-448; numbers count on: the mature protein; Isotope-labelled for NMR; also called PDZ1-PDZ2 bidomain; pDS12; source: E. coli BL21 Star (λ DE3), purified (Ni2+ Sepharose, SENP1 cleavage, Superdex 75 Increase SEC); not shown: His6-SUMO, N-terminal, cleaved
B2: p23 peptide (Abz-GNWVSAAKFETYR^NO3SKNTQDYGILQI) (peptide)
peptide: Abz-GNWVSAAKFETYR(NO3)SKNTQDYGILQI
modifications: reading uncertain; also: printed as Abz-GNWVSAAKFETYR^NO3^SKNTQDYGILQI
notes: The superscript probably marks a nitrotyrosine quencher at Y12; also called fluorescent p23 peptide; source: synthetic peptide, bought: GenScript
B3: DegP^S210A,Y444A, P0C0V0 27-474 (enzyme)
chain: T1 chain
B4: DegP^S210A,M280A (enzyme, E. coli K12, UniProt P0C0V0 27-474, looked up)
chain: T1 chain with M280A, A444Y
notes: numbers count on: the mature protein
B5: DegP^S210A (full-length DegP, active site serine mutated) (enzyme, E. coli K12, UniProt P0C0V0 27-474, looked up)
chain: T1 chain with A444Y
notes: numbers count on: the mature protein; Isotope-labelled for NMR ([U-2H,15N] or [U-2H, Ile-d1-13CH3]); also called full-length DegP^S210A
B6: DegP^S210A,M280I (enzyme, E. coli K12, UniProt P0C0V0 27-474, looked up)
chain: T1 chain with M280I, A444Y
notes: as for B4
B7: biotinylated PDZ2 domain (domain or fragment, E. coli K12, UniProt P0C0V0 385-474, looked up)
chain: QNQVDSSSIFNGIEGAEMSNKGKDQGVVVNNVKTGTPAAQIGLKKGDVIIGANQQAVKNIAELRKVLDSKPSVLALNIQRGDSTIYLLMQ
modifications: biotin (EZ-Link NHS-PEG4-Biotin, molar ratio 1:1 at pH 6.0 to ensure preferential labeling of the N-terminal α-amino group)
notes: DegP protease, E. coli K12, PDZ2 domain, residues 359-448; numbers count on: the mature protein; m6 after biotinylation; immobilised on streptavidin biosensors; source: E. coli BL21 Star (λ DE3), purified, then biotinylated (EZ-Link NHS-PEG4-Biotin); not shown: His6-SUMO, N-terminal, cleaved
B8: DegP PDZ2 domain (DegP^359-448) (domain or fragment, E. coli K12, UniProt P0C0V0 385-474, looked up)
chain: B7 chain
notes: DegP protease, E. coli K12, PDZ2 domain, residues 359-448; numbers count on: the mature protein; [U-15N]-labelled when observed in NMR titrations; also called pDS11; source: E. coli BL21 Star (λ DE3), purified (Ni2+ Sepharose, SENP1 cleavage, Superdex 75 Increase SEC); not shown: His6-SUMO, N-terminal, cleaved

Data set [1] deals with the molecule itself. The experiment in a line: NMR line broadening and peak intensities ([13C,1H] spectra of side chains); [U-13C,15N]-PDZ1-PDZ2 alone at 25° to 50°C; Y444 Cα and ring resonances, M280 ε-methyl open and locked states.
Data set [2] addresses B1. The data set is described as follows: NMR titration; substrates (p23, β-casein, nonactivating reporter peptide) added to the DegP PDZ domains (fig. S12); β-casein up to half equimolar ratio. Conditions: both partners purified.
Data set [3] addresses T1, DegP^S210A,Y444A (E. coli K12), P0C0V0. The experiment in a line: SEC; full-length DegP^S210A variants alone; 8°C stated for DegP^S210A,Y444A; trimer and hexamer species. Conditions: remark: other sources report otherwise. For orientation: Size exclusion chromatography separates by hydrodynamic size, large species first.
The target is the same in data set [4]. The data set is described as follows: NMR pulsed field gradient diffusion (13C-methyl-filtered); [U-2H, Ile-δ1-13CH3]-DegP samples at 25°C; NMR buffer 25 mM potassium phosphate, 1 mM EDTA, 1 mM TCEP pH 7.0; oligomeric state from viscosity- and temperature-corrected translational diffusion coefficient against a calibration curve; hexamer to trimers. The settings on record: remark: other sources report otherwise.

Data set [5] concerns the molecule itself. The experiment in a line: SEC; full-length DegP^S210A variants alone; 8°C stated for DegP^S210A,Y444A; trimer and hexamer species.
Data set [6] concerns the molecule itself. The data set is described as follows: NMR pulsed field gradient diffusion (13C-methyl-filtered); [U-2H, Ile-δ1-13CH3]-DegP samples at 43° and 50°C; NMR buffer pH 7.0; hexamer to trimers.
Data set [7] deals with the molecule itself. The experiment in a line: NMR pulsed field gradient diffusion (13C-methyl-filtered); [U-2H, Ile-δ1-13CH3]-DegP samples at 25°C; NMR buffer 25 mM potassium phosphate, 1 mM EDTA, 1 mM TCEP pH 7.0; oligomeric state from viscosity- and temperature-corrected translational diffusion coefficient against a calibration curve; hexamer to trimers.
Data set [8] deals with the molecule itself. The data set is described as follows: NMR pulsed field gradient diffusion (13C-methyl-filtered); DegP^S210A,M280I, temperature series (fig. S1, K and L); hexamer to trimers.
For data set [9], the target named is T2, DegP PDZ1 domain (DegP^261-354). The experiment in a line: BLI; Octet RED96, 25°C; biotinylated PDZ2 on streptavidin biosensors, PDZ1 as analyte; steady-state analysis; 0.1% BSA, 0.05% Tween 20; association 30 s, dissociation 40 s. Conditions: both partners purified. Background: Biolayer interferometry detects binding as a change in optical thickness at a sensor tip.

Another data set has as its target T3, biotinylated PDZ1 domain. The experiment in a line: BLI; Octet RED96, 25°C; biotinylated PDZ1 on streptavidin biosensors, PDZ2 as analyte; initial tests. Conditions: both partners purified.

Changes are numbered by the printed parent chain. Names may count otherwise. “And” between values parts separate entries of the source, which are not always exact repeats. Identical values can stand only once. No end group written: not given here. NO3 = not defined here

As for B1, in data set [1], the “ratio of open to locked state of M280 at 37°C” value turned out to be 1 and the “stoichiometry N” value was determined as 2.

For the molecule B2, in data set [2], the binding result is listed as “binds”.

In the case of B3, the stoichiometry N is 3 and 6 in data set [3]; 3 in [4].

Take B4: the “stoichiometry N” value in data set [5] is 3 and 6.

As to B5, the “stoichiometry N” value was 3 in data set [6] and 6 in [7].

Consider B6, for which, in [8], the binding result was “binds”.

Take B7: binding in data set [9] was put at a Kd of 7.8 ± 0.9 µM.

Consider B8, for which, in the data set with biotinylated PDZ1 domain, the “fold weakening of Kd against PDZ1 on biotinylated PDZ2” value is ~10 fold.
